In article PMC12435366, “Maleic anhydride derived diphosphines: adaptable chelators for receptor-targeted ^99mTc, ^64Cu and ^188Re radiotracers” (Chemical Science, 2025):

Columns and labels:
[1] = test system: DU145-PSMA+ prostate cancer xenografts; format: in vivo, mice; settings: for tumour delineation in SPECT/CT scans: male SCID/Beige mice bearing DU145-PSMA+ xenografts, SPECT 15 to 120 min post-injection; for clearance from blood pool (SPECT/CT): mouse, in vivo
Description: (§1) The biodistribution of [^99mTcO2(DP^An-PSMAt)2]^+ and [^99mTcO2(DP^MEP-PSMAt)2]^+ was studied using SPECT/CT imaging and ex vivo biodistribution methods. In these studies, [^99mTcO2(DP^An-PSMAt)2]^+ and [^99mTcO2(DP^MEP-PSMAt)2]^+ were used directly from kit-based formulations, without further purification, mimicking procedures used in clinical radiopharmacies and nuclear medicine departments. Mice were injected with [^99mTcO2(DP^An-PSMAt)2]^+ or [^99mTcO2(DP^MEP-PSMAt)2]^+ (4–5 MBq), containing 3 μg (2.6 nmol) of DP^An-PSMAt or 3.5 μg (2.6 nmol) of (DP^MEP-PSMAt) via the tail-vein, and culled 2 h post-injection, followed by dissection, organ/tissue weighing and counting.
SPECT/CT studies were undertaken in male SCID/Beige mice bearing DU145-PSMA+ prostate cancer xenografts administered [^99mTcO2(DP^An-PSMAt)2]^+ and [^99mTcO2(DP^MEP-PSMAt)2]^+. SPECT images were acquired from 15 to 120 min post-injection of radiotracer. […]
(§2) 4.10 In vivo imaging and biodistribution (DU145-PSMA+ and LNCaP)
(§3) Preparation of tumour-bearing mice: All animal experiments were ethically reviewed by an Animal Welfare & Ethical Review Board at either King’s College London or Bart’s Cancer Institute and carried out in accordance with the Animals (Scientific Procedures) Act 1986 UK Home Office regulations governing animal experimentation. Subcutaneous prostate cancer xenografts were produced in SCID/beige mice (male, 7–12 weeks old) by injecting 4 × 10^6 DU145-PSMA+ or DU145 cells suspended in PBS (100 μL) on the right shoulder. Imaging and biodistribution studies were performed once a tumour had reached 5–10 mm in diameter (3–4 weeks after injection). Subcutaneous LNCaP prostate cancer xenografts were produced in athymic nude (Crl:NU(NCr)-Foxn1nu) mice (male, 6–7 weeks old) by injecting 5 × 10^6 LNCaP cells suspended in PBS:matrigel (1:1, 200 μL) on the right flank.
(§4) Biodistribution studies using 99mTc radiotracers were performed once a tumour had reached 150– 300 mm3 in volume (2–7 weeks after injection).
(§5) SCID/beige mice bearing DU145-PSMA+ prostate cancer tumour xenografts
(§6) SPECT/CT scanning and biodistribution studies: The 99mTc radiotracers (3.9–4.5 MBq, 3 mice per group, containing DPAn-PSMAt = 3.0 µg or DPMEP-PSMAt = 3.5 µg) were administered via tail vein injection under isoflurane anaesthesia. […]
(§7) in helical scanning mode). At 2 h post-injection, the animals were euthanized by cervical dislocation, organs/tissues harvested and weighed, and radioactivity counted using a gamma […]
(§8) ii. […] After scanning, the organs/tissues were harvested, weighed and radioactivity counted […]
(§9) Urine was collected and directly analysed by reverse-phase radio-HPLC (method 2). Data were analysed in GraphPad Prism 9 (version 9.1.1) and expressed as mean ± standard deviation (SD). […]

in vivo = assay: in vivo; design: species or system mice; settings: male, athymic nude (Crl:NU(NCr)-Foxn1nu), mouse, iv, total radioactivity
Description: as §1
The biodistribution of [^99mTcO2(DP^An-PSMAt)2]^+ and [^99mTcO2(DP^MEP-PSMAt)2]^+ was further studied in (i) male SCID/Beige mice bearing DU145-PSMA+ prostate cancer xenografts (Fig. 8) and (ii) male nude mice bearing PSMA-expressing LNCaP prostate cancer xenografts (see SI). […]
as §2, §3, §4, §5, §6, §7, §8, §9

SMILES	tumour delineation in SPECT/CT scans [1]	clearance from blood pool (SPECT/CT) [1]	tissue uptake at 2 h (in vivo; Kidney) [%ID/g]	tissue uptake at 2 h (in vivo; Liver) [%ID/g]
COCCOc1ccc(P(/C(C(=O)O)=C(/C(=O)NCCOCCOCCOCCOCCC(=O)NCCCC[C@H](NC(=O)N[C@@H](CCC(=O)O)C(=O)O)C(=O)O)P(c2ccc(OCCOC)cc2)c2ccc(OCCOC)cc2)c2ccc(OCCOC)cc2)cc1 [[^99mTcO2(DP^MEP-PSMAt)2]^+, metal not drawn]	could be delineated	rapidly cleared from the blood pool via a renal pathway	46.4 ± 23.2	7.38 ± 3.98
COc1ccc(P(/C(C(=O)O)=C(/C(=O)NCCOCCOCCOCCOCCC(=O)NCCCC[C@H](NC(=O)N[C@@H](CCC(=O)O)C(=O)O)C(=O)O)P(c2ccc(OC)cc2)c2ccc(OC)cc2)c2ccc(OC)cc2)cc1 [[^99mTcO2(DP^An-PSMAt)2]^+, metal not drawn]	could be delineated	rapidly cleared from the blood pool via a renal pathway	87.6 ± 13.3	0.9 ± 0.15
